Tested on: THP-1 cells
Experiment: Angiocidin-mediated up-regulation of CD14 in THP-1 cells, flow cytometry
Assay type: cell-based
Conditions: 2.5 μg/ml Angiocidin plus 10 μg/ml rabbit anti-DR6 IgG or 0.10 μg/ml DR6-Fc, 24 hours, 1% fetal calf serum
Protocol: THP-1 cells were grown for 24 hours in RPMI containing 1% fetal calf serum (NT) or containing the following: 2.5 μg/ml Angiocidin, 0.10 μg/ml DR6-Fc, 2.5 μg/ml Angiocidin plus 0.10 μg/ml, DR6-Fc, 10 μg/ml rabbit IgG, 2.5 μg/ml Angiocidin plus 10 μg/ml rabbit IgG, 10 μg/ml rabbit anti-DR6 IgG, 2.5 μg/ml Angiocidin plus 10 μg/ml rabbit anti-DR6 IgG. Percent CD14 positive cells were measured by flow cytometry.

B1: DR6-Fc: DR6 extracellular-Fc chimeric recombinant protein (protein)
chain: QPEQKASNLIGTYRHVDRATGQVLTCDKCPAGTYVSEHCTNTSLRVCSSCPVGTFTRHENGIEKCHDCSQPCPWPMIEKLPCAALTDRECTCPPGMFQSNATCAPHTVCPVGWGVRKKGTETEDVRCKQCARGTFSDVPSSVMKCKAYTDCLSQNLVVIKPGTKETDNVCGTLPSFSSSTSPSPGTAIFPRPEHMETHEVPSSTYVPKGMNSTESNSSASVRPKVLSSIQEGTVPDNTSSARGKEDVNKTLPNLQVVNHQQGPHHRHILKLLPSMEATGGEKSSTPIKGPKRGHPRQNLHKHFDINEH
modifications: left off: a dimerising Fc or GST
notes: DR6 extracellular-Fc chimeric recombinant protein
  Inhibition of angiocidin-mediated upregulation of CD14 (percent CD14 positive cells): inhibit the angiocidin-mediated upregulation of CD14
